This is an account of results in EP4793349A2.

For the test, the target named is cation-independent mannose-6-phosphate receptor (CIMPR). Nature of the test: CIMPR affinity chromatography of spent culture medium, before AEX capture.

On to “recombinant human α-galactosidase A (rhα-Gal A) (from UniProt P06280 32-429) (enzyme)”, for which the percent able to bind CIMPR was found to be 80%.
